Consider 21 sequences from the Immune Epitope Database (IEDB).

What is called Kd is the concentration at which binding is half-saturated.

One experiment has as its target HLA-B*44:02. Briefly: IEDB peptide-MHC binding, purified MHC/competitive/radioactivity; filed as Kd, often an IC50 or EC50 that approximates it; ≥ and ≤ were set here for values at or beyond the usual limits of such assays.
A further experiment addresses HLA-B*18:01. The description is as above.
The target of another experiment is HLA-B*44:03. Described as above.
The target in a further experiment is HLA-B*40:02. The description is as above.
A further experiment has as its target HLA-B*40:01. Described as above.
Another experiment has as its target HLA-B*45:01. The description is as above.
A further experiment deals with HLA-A*03:01. Briefly: IEDB peptide-MHC binding, purified MHC/competitive/fluorescence; filed as Kd, often an IC50 or EC50 that approximates it; ≥ and ≤ were set here for values at or beyond the usual limits of such assays.
The target in another experiment is HLA-A*30:02. Briefly: IEDB peptide-MHC binding, purified MHC/competitive/radioactivity; filed as Kd, often an IC50 or EC50 that approximates it; ≥ and ≤ were set here for values at or beyond the usual limits of such assays. Conditions: source organism: Dengue virus 2 Jamaica/1409/1983.
The next experiment addresses HLA-A*01:01. Described as above. The conditions noted are these: source organism: Dengue virus 2 Jamaica/1409/1983.
The target in experiment [1] is HLA-B*15:01. The experiment is described as above.
A further experiment has as its target HLA-A*26:01. Briefly: IEDB peptide-MHC binding, purified MHC/direct/fluorescence; filed as Kd, often an IC50 or EC50 that approximates it; ≥ and ≤ were set here for values at or beyond the usual limits of such assays.
The target in experiment [2] is HLA-B*15:01. Briefly: IEDB peptide-MHC binding, purified MHC/competitive/fluorescence; filed as Kd, often an IC50 or EC50 that approximates it; ≥ and ≤ were set here for values at or beyond the usual limits of such assays. Conditions: source organism: Bacillus anthracis str. A0488.
Setting [3] is: source organism: Mammarenavirus lassaense.
Where [4] appears, read: source organism: Mammarenavirus brazilense.
[5] abbreviates: source organism: Mammarenavirus machupoense.
[6] abbreviates: source organism: SARS coronavirus Tor2.

As for ADNLITEML, the Kd with HLA-B*44:02 (setting [3]) was 6.2 µM; in the experiment with HLA-B*18:01 (setting [3]), at least 36.3 µM; with HLA-B*44:03 (setting [3]), 12.3 µM; in the experiment with HLA-B*40:02 (setting [3]), 0.415 µM; with HLA-B*40:01 (setting [3]) it was at least 27.8 µM; with HLA-B*45:01 (setting [3]), at least 77.7 µM.

KLSSEQLSK had a Kd with HLA-A*03:01 (source organism: Trypanosoma cruzi) of 0.108 µM.

As to SEIQLQRLC, the equilibrium dissociation constant (Kd) was 0.285 µM with HLA-B*44:02 (setting [4]); 10.5 µM in the experiment with HLA-B*18:01 (setting [4]); 0.327 µM in the experiment with HLA-B*44:03 (setting [4]); 0.0685 µM with HLA-B*40:02 (setting [4]); 1.77 µM in the experiment with HLA-B*40:01 (setting [4]); 0.99 µM in the experiment with HLA-B*45:01 (setting [4]).

Sequence FLWWGKWRK came in with a dissociation constant (Kd) with HLA-A*03:01 (source organism: Brucella abortus str. 2308 A) of 0.0031 µM.

SMANIFRGSY: the figures for the Kd in the experiment with HLA-A*30:02, in the experiment with HLA-A*01:01 and with HLA-B*15:01 [1] (source organism: Dengue virus 2 Jamaica/1409/1983) were 0.00895 µM, 3.25 µM and 0.00027 µM, respectively.

For DELGNILSTY, the Kd with HLA-B*44:02 (setting [5]) is 1.86 µM; in the experiment with HLA-B*18:01 (setting [5]), 0.00862 µM; with HLA-B*44:03 (setting [5]), 0.361 µM; in the experiment with HLA-B*40:02 (setting [5]) it was 5.38 µM; with HLA-B*40:01 (setting [5]) it was at least 69.5 µM; in the experiment with HLA-B*45:01 (setting [5]) it was at least 70 µM.

Turning to EEGNLLDSYF, the Kd with HLA-B*44:02 (setting [6]) was 0.00388 µM; with HLA-B*18:01 (setting [6]) it was 10.7 µM; with HLA-B*44:03 (setting [6]), 0.0117 µM; with HLA-B*40:02 (setting [6]), at least 70.8 µM; with HLA-B*40:01 (setting [6]), at least 41.8 µM; with HLA-B*45:01 (setting [6]) it was at least 20.2 µM.

Consider SELAKGVAL, for which the Kd was found to be 0.132 µM with HLA-B*44:02 (setting [6]); 1.11 µM with HLA-B*18:01 (setting [6]); 0.175 µM in the experiment with HLA-B*44:03 (setting [6]); 0.0141 µM with HLA-B*40:02 (setting [6]); 0.00335 µM with HLA-B*40:01 (setting [6]); 0.401 µM with HLA-B*45:01 (setting [6]).

As to PELKKPITW, the Kd is at least 42.8 µM with HLA-B*44:02 (setting [4]); at least 77.5 µM in the experiment with HLA-B*18:01 (setting [4]); 14.1 µM in the experiment with HLA-B*44:03 (setting [4]); at least 37.1 µM with HLA-B*40:02 (setting [4]); at least 76.1 µM with HLA-B*40:01 (setting [4]); at least 77.7 µM with HLA-B*45:01 (setting [4]).

With GEPKTVKVL, the dissociation constant (Kd) with HLA-B*44:02 (setting [3]) is at least 77.9 µM; with HLA-B*18:01 (setting [3]) it was at least 77.5 µM; in the experiment with HLA-B*44:03 (setting [3]), at least 78.1 µM; with HLA-B*40:02 (setting [3]), 0.566 µM; in the experiment with HLA-B*40:01 (setting [3]), 18.8 µM; with HLA-B*45:01 (setting [3]) it was at least 77.7 µM.

Take FEIKSAKKF: the dissociation constant Kd with HLA-B*44:02 (setting [6]) came out at 0.0159 µM; with HLA-B*18:01 (setting [6]), 1.08 µM; in the experiment with HLA-B*44:03 (setting [6]) it was 0.0353 µM; with HLA-B*40:02 (setting [6]), 0.621 µM; in the experiment with HLA-B*40:01 (setting [6]), 1.71 µM; with HLA-B*45:01 (setting [6]) it was 18 µM.

Consider MVSIQWHAM, for which the Kd with HLA-A*26:01 (source organism: Giardia lamblia ATCC 50803) is 3.76 µM.

As for EEPVSLLPLS, the Kd with HLA-B*44:02 (setting [5]) was 5.71 µM; with HLA-B*18:01 (setting [5]), at least 38.4 µM; with HLA-B*44:03 (setting [5]), 1.87 µM; with HLA-B*40:02 (setting [5]), 6.15 µM; with HLA-B*40:01 (setting [5]), 7.39 µM; with HLA-B*45:01 (setting [5]), 0.565 µM.

Turning to REVSTAAVT, the Kd in the experiment with HLA-B*44:02 (setting [6]) was 16 µM; with HLA-B*18:01 (setting [6]), 16.9 µM; with HLA-B*44:03 (setting [6]), 6.86 µM; with HLA-B*40:02 (setting [6]), at least 21.1 µM; in the experiment with HLA-B*40:01 (setting [6]), 0.112 µM; with HLA-B*45:01 (setting [6]), 0.0303 µM.

Regarding RLMATKNIY, in the experiment with HLA-B*15:01 [2], the Kd is 0.136 µM.

With VNIKYNPHI, the Kd in the experiment with HLA-B*15:01 [1] (source organism: Vaccinia virus WR) was 0.141 µM.

Turning to DEFIQRYKL, the Kd with HLA-B*44:02 (setting [6]) is 15.9 µM; with HLA-B*18:01 (setting [6]), 0.0479 µM; with HLA-B*44:03 (setting [6]), 8.8 µM; with HLA-B*40:02 (setting [6]), 2.5 µM; with HLA-B*40:01 (setting [6]) it was at least 23.9 µM; in the experiment with HLA-B*45:01 (setting [6]), at least 25.9 µM.

As for LVIDNLYGF, in the experiment with HLA-A*26:01 (source organism: Mycobacterium tuberculosis), the Kd was determined as 0.0122 µM.

The sequence RVYAHDAQH showed a Kd with HLA-A*03:01 (source organism: Pixuna virus) of 0.0305 µM.

Turning to GETPIAYRNV, the Kd with HLA-B*44:02 (setting [6]) was at least 38.1 µM; with HLA-B*18:01 (setting [6]) it was at least 59.5 µM; in the experiment with HLA-B*44:03 (setting [6]) it was at least 22.7 µM; with HLA-B*40:02 (setting [6]) it was 0.281 µM; with HLA-B*40:01 (setting [6]), 1.65 µM; with HLA-B*45:01 (setting [6]), 0.698 µM.

VEAVMYMGTL: the Kd with HLA-B*44:02 (setting [6]) was found to be 1.54 µM; in the experiment with HLA-B*18:01 (setting [6]) it was 7.24 µM; in the experiment with HLA-B*44:03 (setting [6]) it was 0.516 µM; with HLA-B*40:02 (setting [6]) it was 0.0338 µM; with HLA-B*40:01 (setting [6]) it was 0.0222 µM; with HLA-B*45:01 (setting [6]), 0.508 µM.
